Laboratory results published in US20260028391A1 (HUMABS BIOMED, published 2026).

Experiments:
biot-RSV-F wt [1] = molecular target: T1, biot-RSV-F wt (respiratory syncytial virus (RSV)); assay: BLI, SA sensor loaded with biot-RSV-F wt, mAb 5 ug/ml, 4 min association, 6 min dissociation
[2] = molecular target: T2, RSV F expressed on transfected Expi293F cells (respiratory syncytial virus (RSV)); assay: flow cytometry, transfected Expi293F cells, fixed and permeabilised
[3] = molecular target: T3, MPV fusion glycoprotein without the D280N mutation (MPV-F D280) (metapneumovirus); assay: biolayer interferometry (BLI), rIgG1 with M428L/N434S
T3 construct: also called MPV F Non-D280N; MPV-F wt

[4] = molecular target: T4, RSV fusion glycoprotein (RSV-F) (respiratory syncytial virus); assay: as above
T4 construct: also called RSV-F wt

[5] = molecular target: T5, MPV fusion glycoprotein with the D280N mutation (MPV-F N280) (metapneumovirus); assay: as above
T5 construct: also called MPV F D280N; MPV-F D280N

DS-Cav1 RSV F = molecular target: T6, DS-Cav1 RSV F (respiratory syncytial virus); assay: ELISA on DS-Cav1 RSV F
T6 construct: also called DC-VCav1

[6] = molecular target: fusion glycoprotein (F) of the MPV (non-D280N) used in the GFP-based neutralization assay of Table 23 (metapneumovirus); assay: cell-based or functional assay
[7] = molecular target: fusion glycoprotein (F) of the RSV used in the GFP-based neutralization assay of Table 23 (respiratory syncytial virus); assay: cell-based or functional assay
[8] = molecular target: fusion glycoprotein (F) of MPV A1/6621 (metapneumovirus A1/6621); assay: cell-based or functional assay
[9] = molecular target: T3, MPV fusion glycoprotein without the …; assay: SPR; F protein loaded on streptavidin sensors, mAb in solution
Method: (§1) Binding affinity of mAbs for RSV-F protein, MPV-F D280 protein, and MPV-F N280 F variant protein was assessed using surface plasmon resonance (SPR).

[10] = molecular target: T4, RSV fusion glycoprotein (RSV-F); assay: as above
Method: as §1

[11] = molecular target: T5, MPV fusion glycoprotein with the D280N …; assay: as above
Method: as §1

[12] = molecular target: fusion glycoprotein (F) of RSV A/A2/61 (respiratory syncytial virus A/A2/61, UniProt P03420 26-574); assay: cell-based or functional assay
RSV-B B9320 F protein = RSV-B B9320 F protein (RSV B, strain B9320); assay: cell-based or functional assay
[13] = molecular target: RSV A Randall fusion glycoprotein (F) (RSV A, strain Randall); assay: cell-based or functional assay
[14] = molecular target: fusion glycoprotein (F) of RSV B/9727 (respiratory syncytial virus B/9727); assay: cell-based or functional assay
[15] = molecular target: T7, RSV fusion glycoprotein (RSV-F), pre-fusion conformation, recombinant protein loaded on sensors (respiratory syncytial virus (RSV), …); assay: same manner as Experiment 1 (Example 6, Experiment 4)
T7 construct: also called RSV-F wt; RSV-F protein

biot-RSV-F wt [16] = molecular target: T1, biot-RSV-F wt; assay: BLI (Octet), biotinylated F on SA sensors, mAb 5 µg/ml
biot-RSV-F wt [17] = molecular target: T1, biot-RSV-F wt; assay: BLI, SA sensor loaded with biot-RSV-F wt, mAb 5 ug/ml, 4 min association, 6 min dissociation; remark: listed apart in the source
[18] = molecular target: T2, RSV F expressed on transfected Expi293F …; assay: flow cytometry, transfected Expi293F cells, fixed and permeabilised; remark: listed apart in the source

B1: MPK51-v1.1-rIgG1m17,1-LS (antibody, V domains shown)
VH: QVQLVESGGGLVKPGGSLRLSCAASGFRISGYYMIWVRQAPGKGLEWISAISGMSSYITYADSVKGRFTVSRDNGQNSLFLEMKSLRGEDTAVYFCAREEVPSPGPFDLWGQGTPVTVSS
VL: QSVVTQPPSVSGAPGQRVTIFCTGSTSNIGAGYDVHWYQHLPGTAPRLLIFRNNNRPSGVPDRFSGFKSGTSASLAIIGLQVEDEADYYCQSYDRNMDGWAFGGGTKLTVL
notes: called the parental mAb (v1.1)
Kd (biot-RSV-F wt [1]): < 0.001 nM | Binding (FACS) relative to parental mAb MPK51-v1.1 [2]: 1

B2: MPH12 (antibody, IgG1, V domains shown)
VH: QVQLVESGGGLVKPGGSLRLSCVASGFTFSGFYMKWIRQAPGKGLEWVSSISASGSYTNYADSVEGRFTVSRDNAKNSLFLLMSSLRAEDTAVYYCARGDSYCGASACHGEFFHKWGQGTLVTVSS
VL: QSVLTQPPSVSGAPGQRVTISCTGSDSNIGADFDVHWYQQLPGTAPKLLIYGNINRPSGVPDRFSGSRSGTSAFLAITRLQAEDEADYYCQSYDRSLHYVFGAGTKVTVL
notes: also called WT; parental MPH12-wt
Kd [3]: 0.026 nM | Kd [4]: 0.42 nM | Kd [5]: 1.1 nM | EC50 (DS-Cav1 RSV F): 0.0326 µg/mL | MPV IC50 (ng/mL), GFP-based in vitro neutralization [6]: 24.6 ng/mL | RSV IC 50 (ng/mL), GFP-based in vitro neutralization [7]: 47.7 ng/mL | MPV IC50 (nM), neutralization of MPV A1/6621 [8]: 0.0671 nM | Kd [9]: 0.001 nM | Kd [10]: 0.75 nM | Kd [11]: 1.7 nM | RSV IC50 (ng/ml), neutralization of A/A2 [12]: 142 ng/mL | RSV IC50 (ng/ml), neutralization of B/9320 (RSV-B B9320 F protein): 3.29 ng/mL | RSV IC50 (ng/ml), neutralization of A/Randall [13]: 23.1 ng/mL | RSV IC50 (ng/ml), neutralization of B/9727 [14]: 19.9 ng/mL

B3: MPK36-v3 (antibody, V domains shown)
VH: EVQLVESGGGLVKPGGSLRLSCAASFTISGYYMIWIRQAPGKGLEWISYISGSSTYTNYADSVKGRFTISRDNGQNTLYLHMTSLRADDTALYYCATEQTPSPGPFDLWGQGTLVTVSS
VL: QTVVTQPPSVSGAPGQRVTISCSGTSSNIGAGYDVHWYQQFPGTSPKLLIYRNFNRPSGVPDRFSGSKSGSSASLAIAGLQAEDEADYYCQSYDKSLDGWVFGGGTKVTVL
notes: also called MPK36-v3-rIgG1-LS
Kd [15]: ~0.001 nM

B4: MPK77-v1.1-rIgG1m17,1-LS (antibody, V domains shown)
VH: QVQLVESGGGLVKPGGSLRLSCAASKSFSGYYMIWIRQAPGRGLEWIADISGSSTYTDYADSVKGRFTISRDNTRNTLYLQMNSLRPEDTAVYYCATEQVPSPGPFDLWGPGTLVTVSS
VL: QSVLTQPPSVSGAPGQRVIISCTGSSSNIGAGYDVHWYQQFPGTSPKLLIYRNTNRPSGVPDRFSGFKSGASAALAITGLQAEDEADYYCQSYDRSLSGWAFGGGTKVTVL
notes: called the parental mAb (v1.1); also called MPK77-v1.1-rIgG1-LS
Kd (biot-RSV-F wt [16]): < 0.001 nM | Kd (biot-RSV-F wt [17]): < 0.001 nM | Binding (FACS) relative to parental mAb MPK77-v1.1 [18]: 1
